Test results from patent US20110045003A1 (SYNOVEX, published 2011).

T1: recombinant Cad-11 EC1 human IgG1 fusion protein (R&D Systems Cat. No. 1790-CA-050) (human, UniProt P55287 54-617, limits assumed)
T1 construct: Bought protein; the catalogue product may hold more of the extracellular region; also called recombinant human Cad-11 EC1; recombinant human Cad-11 fusion protein; not shown: human IgG1 part of the bought fusion protein
T1 sequence: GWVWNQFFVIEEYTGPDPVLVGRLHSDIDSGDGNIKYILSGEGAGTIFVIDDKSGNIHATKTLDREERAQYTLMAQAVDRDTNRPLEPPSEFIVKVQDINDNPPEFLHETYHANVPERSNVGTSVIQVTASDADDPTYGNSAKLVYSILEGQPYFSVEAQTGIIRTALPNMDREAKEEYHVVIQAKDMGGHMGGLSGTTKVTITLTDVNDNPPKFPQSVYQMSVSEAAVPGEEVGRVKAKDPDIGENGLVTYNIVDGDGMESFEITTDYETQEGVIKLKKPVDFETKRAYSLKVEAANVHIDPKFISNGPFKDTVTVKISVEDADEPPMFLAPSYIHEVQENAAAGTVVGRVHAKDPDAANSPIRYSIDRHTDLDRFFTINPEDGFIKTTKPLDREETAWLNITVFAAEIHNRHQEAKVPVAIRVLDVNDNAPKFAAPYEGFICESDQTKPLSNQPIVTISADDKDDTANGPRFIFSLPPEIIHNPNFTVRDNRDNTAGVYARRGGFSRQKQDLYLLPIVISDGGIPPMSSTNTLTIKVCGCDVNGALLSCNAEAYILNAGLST

T2: BSA coupled 37-mer Cad-11 peptide encompassing the Cad-11 immunogen (UniProt P55287 54-90, limits assumed, linked to BSA)
T2 construct: domain: 37-mer peptide encompassing the Cad-11 immunogen; also called Cad-11 antigen; Cad-11 peptide immunogen
T2 peptide (looked up): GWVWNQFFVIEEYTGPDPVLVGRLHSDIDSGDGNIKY


How the values were obtained:
[1] = biological target: T1, recombinant Cad-11 EC1 human IgG1 …; assay: competition ELISA on coated recombinant human Cad-11 EC1 fusion; competitor biotinylated SYN0012/H1M1 at 0.1 µg/ml
Method: (§1) The binding of the purified humanized composite variant antibodies (SDP011 to SDP151) to a recombinant Cad-11 EC1 human IgG1 fusion protein was assessed in a competition binding ELISA. A dilution series from 5 μg/ml to 0.0022 μg/ml of the humanized or control (SYN0012/H1M1) antibodies was premixed with a constant concentration of biotinylated murine anti-Cad-11 antibody, SYN0012/H1M1 (0.1 μg/ml, final concentration), before incubating for 1 hour at room temperature on a Nunc Immuno MaxiSorp 96 well flat bottom microtitre plate (Fisher Cat. No. DIS-971-030J) pre-coated with 0.25 μg/ml recombinant human Cad-11 EC1 (R&D Systems Cat. No. 1790-CA-050) diluted in PBS. The binding of the biotinylated mAb was detected with streptavidin-HRP (Sigma Cat. No. 55512) and tetramethylbenzidine (TMB) substrate (Invitrogen Cat. No. 00-2023).
The relative IC50 was calculated by dividing the value for the test antibody by that of SYN0012. Antibody expression levels given are for static cultures in T flasks. PI are calculated.

[2] = biological target: T2, BSA coupled 37-mer Cad-11 peptide …; assay: ELISA, BSA-coupled 37-mer cadherin peptide coated at 500 ng/ml, antibody titrated, A450
Method: Reactibind plates (ThermoScientific) were coated with 500 ng/ml of the BSA coupled cadherin 37-mer peptide (NE peptide) corresponding to Cadherins-7, -8, -9, -11, -18, -20, and -24 in 0.05% Tween (EMD, product code 9480) in PBS (pH 7.2) (Gibco(Invitrogen), #20012) at 100 μl volume/well for overnight at 4° C. The peptide containing solution was removed from the well and the plate blocked with a 2% bovine serum albumin (BSA) in PBS, 200 μl volume/well, for 2 h at 22° C. The plate was then washed twice with 200 μl/well of PBS-Tween 0.05% at 22° C. and blotted dry. A dilution series from 5 μg/ml to 8 ng/ml in a volume of 100 μl/well of each the humanized anti-Cad-11 antibodies were incubated in the peptide coated wells and incubated at 22° C. for 1 hr. Antibody solution was removed from the wells and the plate washed twice with 200 μl/well of 0.05% Tween-PBS at 22° C. and blotted dry. The goat-anti mouse IgG (Pierce # 31432) was added to each well to plate at a 1:1000 dilution, 100 μl/well and incubate at 22° C. for 30 min. The secondary antibody solution was removed and the plate washed twice with 200 μl/well of 0.05% Tween-PBS at 22° C. and blotted dry. The reaction was developed by adding 100 μl/well tetramethylbenzidine (TMB) reagent IgG (Pierce # 34022, 1 step Turbo TMB-ELISA) to plate and developed at 22° C. for 5 min.

[3] = biological target: T1, recombinant Cad-11 EC1 human IgG1 …; assay: competition ELISA: antibody dilution series premixed with biotinylated SYN0012/H1M1 (0.1 µg/ml) on plate-coated recombinant human Cad-11 EC1 fusion protein; OD450 = bound biotinylated SYN0012
Method: as §1

[4] = biological target: T1, recombinant Cad-11 EC1 human IgG1 …; assay: competition ELISA on coated recombinant human Cad-11 EC1 fusion protein; competitor biotinylated SYN0012 at 0.1 µg/ml, streptavidin-HRP, OD450
Method: as §1

relative IC50 (IC50 of the test antibody divided by that of SYN0012) [1]	EC50 (read off the curve) [2]	IC50 (read off the curve) [3]	IC50 (read off the curve) [4]	Binder
0.42 ratio (column head prints µg/mL)	~0.08 µg/mL			humanized anti-Cad-11 antibody SDP081 (Vκ2/VH3) (antibody, IgG4, V domains shown, humanized IgG4 (S241P), kappa) VH: EVQLVQSGAEVKKPGASVKISCKASGYSFTGYFMNWVRQAPGQGLEWIGRINPYTGDTFYNQKFKGRATLTVDKSTSTAYMELSSLRSEDTAVYYCGRLGSRYWYFDVWGQGTTVTVSS VL: DVLMTQTPLSSPVTLGQPASISCRSSQSIIHSNGNTYLEWYLQKPGQSPQLLIYKVSNRFSGVPDRFSGSGSGTDFTLKISRVEAEDVGVYYCFQGSHVPWTFGQGTKLEIK
0.61 ratio (column head prints µg/mL)	~0.06 µg/mL	~0.2 µg/mL		humanized anti-Cad-11 antibody SDP141 (Vκ3/VH4) (antibody, IgG4, V domains shown, humanized IgG4 (S241P), kappa) VH: EVQLVQSGAEVKKPGASVKVSCKASGYSFTGYFMNWVRQAPGQGLEWIGRINPYTGDTFYNQKFKGRATITVDKSTSTAYMELSSLRSEDTAVYYCGRLGSRYWYFDVWGQGTTVTVSS VL: DVVMTQTPLSSPVTLGQPASISCRSSQSIIHSNGNTYLEWYLQKPGQSPQLLIYKVSNRFSGVPDRFSGSGSGTDFTLKISRVEAEDVGVYYCFQGSHVPWTFGQGTKLEIK
0.72 ratio (column head prints µg/mL)	~0.06 µg/mL	~0.2 µg/mL		humanized anti-Cad-11 antibody SDP151 (Vκ3/VH5) (antibody, IgG4, V domains shown, humanized IgG4 (S241P), kappa) VH: EVQLVQSGAEVKKPGASVKVSCKASGYSFTGYFMNWVRQAPGQGLEWIGRINPYTGDTFYNQKFKGRVTITVDKSTSTAYMELSSLRSEDTAVYYCGRLGSRYWYFDVWGQGTTVTVSS VL: DVVMTQTPLSSPVTLGQPASISCRSSQSIIHSNGNTYLEWYLQKPGQSPQLLIYKVSNRFSGVPDRFSGSGSGTDFTLKISRVEAEDVGVYYCFQGSHVPWTFGQGTKLEIK
0.91 ratio (column head prints µg/mL)	~0.07 µg/mL		~0.2 µg/mL	humanized anti-Cad-11 antibody SDP011 (Vκ1/VH1) (antibody, IgG4, V domains shown, humanized IgG4 (S241P), kappa) VH: EVQLVQSGPELKKPGASVKISCKASGYSFTGYFMNWVKQAHGQGLEWIGRINPYTGDTFYNQKFKGRATLTVDKSSSTAYMELVSLSSEDSAVYYCGRLGSRYWYFDVWGQGTTVTVSS VL: DVLMTQTPLSSPVTLGQPASISCRSSQSIIHSNGNTYLEWYLQKPGQSPQLLIYKVSNRFSGVPDRFTGSGSGTDFTLKISRVEAEDVGVYYCFQGSHVPWTFGQGTKLEIK
0.55 ratio (column head prints µg/mL)	~0.07 µg/mL	~0.2 µg/mL		humanized anti-Cad-11 antibody SDP131 (Vκ3/VH3) (antibody, IgG4, V domains shown, humanized IgG4 (S241P), kappa) VH: EVQLVQSGAEVKKPGASVKISCKASGYSFTGYFMNWVRQAPGQGLEWIGRINPYTGDTFYNQKFKGRATLTVDKSTSTAYMELSSLRSEDTAVYYCGRLGSRYWYFDVWGQGTTVTVSS VL: DVVMTQTPLSSPVTLGQPASISCRSSQSIIHSNGNTYLEWYLQKPGQSPQLLIYKVSNRFSGVPDRFSGSGSGTDFTLKISRVEAEDVGVYYCFQGSHVPWTFGQGTKLEIK
0.68 ratio (column head prints µg/mL)	~0.07 µg/mL	~0.2 µg/mL		humanized anti-Cad-11 antibody SDP111 (Vκ3/VH1) (antibody, IgG4, V domains shown, humanized IgG4 (S241P), kappa) VH: EVQLVQSGPELKKPGASVKISCKASGYSFTGYFMNWVKQAHGQGLEWIGRINPYTGDTFYNQKFKGRATLTVDKSSSTAYMELVSLSSEDSAVYYCGRLGSRYWYFDVWGQGTTVTVSS VL: DVVMTQTPLSSPVTLGQPASISCRSSQSIIHSNGNTYLEWYLQKPGQSPQLLIYKVSNRFSGVPDRFSGSGSGTDFTLKISRVEAEDVGVYYCFQGSHVPWTFGQGTKLEIK
0.67 ratio (column head prints µg/mL)	~0.06 µg/mL		~0.1 µg/mL	humanized anti-Cad-11 antibody SDP021 (Vκ1/VH2) (antibody, IgG4, V domains shown, humanized IgG4 (S241P), kappa) VH: EVQLVQSGAEVKKPGASVKISCKASGYSFTGYFMNWVKQAPGQGLEWIGRINPYTGDTFYNQKFKGRATLTVDKSTSTAYMELSSLRSEDTAVYYCGRLGSRYWYFDVWGQGTTVTVSS VL: DVLMTQTPLSSPVTLGQPASISCRSSQSIIHSNGNTYLEWYLQKPGQSPQLLIYKVSNRFSGVPDRFTGSGSGTDFTLKISRVEAEDVGVYYCFQGSHVPWTFGQGTKLEIK
0.53 ratio (column head prints µg/mL)	~0.07 µg/mL			humanized anti-Cad-11 antibody SDP101 (Vκ2/VH5) (antibody, IgG4, V domains shown, humanized IgG4 (S241P), kappa) VH: EVQLVQSGAEVKKPGASVKVSCKASGYSFTGYFMNWVRQAPGQGLEWIGRINPYTGDTFYNQKFKGRVTITVDKSTSTAYMELSSLRSEDTAVYYCGRLGSRYWYFDVWGQGTTVTVSS VL: DVLMTQTPLSSPVTLGQPASISCRSSQSIIHSNGNTYLEWYLQKPGQSPQLLIYKVSNRFSGVPDRFSGSGSGTDFTLKISRVEAEDVGVYYCFQGSHVPWTFGQGTKLEIK
0.52 ratio (column head prints µg/mL)	~0.06 µg/mL	~0.2 µg/mL		humanized anti-Cad-11 antibody SDP121 (Vκ3/VH2) (antibody, IgG4, V domains shown, humanized IgG4 (S241P), kappa) VH: EVQLVQSGAEVKKPGASVKISCKASGYSFTGYFMNWVKQAPGQGLEWIGRINPYTGDTFYNQKFKGRATLTVDKSTSTAYMELSSLRSEDTAVYYCGRLGSRYWYFDVWGQGTTVTVSS VL: DVVMTQTPLSSPVTLGQPASISCRSSQSIIHSNGNTYLEWYLQKPGQSPQLLIYKVSNRFSGVPDRFSGSGSGTDFTLKISRVEAEDVGVYYCFQGSHVPWTFGQGTKLEIK
0.57 ratio (column head prints µg/mL)	~0.07 µg/mL			humanized anti-Cad-11 antibody SDP091 (Vκ2/VH4) (antibody, IgG4, V domains shown, humanized IgG4 (S241P), kappa) VH: EVQLVQSGAEVKKPGASVKVSCKASGYSFTGYFMNWVRQAPGQGLEWIGRINPYTGDTFYNQKFKGRATITVDKSTSTAYMELSSLRSEDTAVYYCGRLGSRYWYFDVWGQGTTVTVSS VL: DVLMTQTPLSSPVTLGQPASISCRSSQSIIHSNGNTYLEWYLQKPGQSPQLLIYKVSNRFSGVPDRFSGSGSGTDFTLKISRVEAEDVGVYYCFQGSHVPWTFGQGTKLEIK
0.65 ratio (column head prints µg/mL)	~0.06 µg/mL		~0.1 µg/mL	humanized anti-Cad-11 antibody SDP041 (Vκ1/VH4) (antibody, IgG4, V domains shown, humanized IgG4 (S241P), kappa) VH: EVQLVQSGAEVKKPGASVKVSCKASGYSFTGYFMNWVRQAPGQGLEWIGRINPYTGDTFYNQKFKGRATITVDKSTSTAYMELSSLRSEDTAVYYCGRLGSRYWYFDVWGQGTTVTVSS VL: DVLMTQTPLSSPVTLGQPASISCRSSQSIIHSNGNTYLEWYLQKPGQSPQLLIYKVSNRFSGVPDRFTGSGSGTDFTLKISRVEAEDVGVYYCFQGSHVPWTFGQGTKLEIK
